Biological target: Mdb1 (UniProt O14079)
Test: biotin-peptide streptavidin pull-down, Coomassie stain
Conditions: reference: unphosphorylated H2A peptide; sites S129

With “H2A.1 C-terminal 13 residues, 120-132 (from UniProt P04909) pS129 (γH2A) peptide” as the substance, how does the “binding against the reference” value read?
Its value is “gained”.

— article PMC4013092
